# Reference: patent publication US20190322750A1 (Y BIOLOGICS, published 2019)
# Changes are numbered by the printed parent chain.
# B1: PDL1-16E12 (LS/4H5) (antibody, V domains shown)
# VH: QMQLVQSGAEVKKPGSSVKVSCKASGGTFSSYAISWVRQAPGQGLEWMGRIIPILGIANYAQKFQGRVTITADKSTSTAYMELSSLRSEDTAVYYCAKPRDGYNLVAFDIWGQGTMVTVSS
# VL: QLVLTQPPSVSGAPGQRVTISCTGSSSNIGAGYDVHWYQQLPGTAPKLLIYGNSNRPSGVPDRFSGSKSGTSASLAITGLQAEDEADYYCQSYDSSLSGGVFGGGTKLTVL
# notes: also called PD-L1-16E12-4H5
# B2: PDL1-16E12 (LS/4A7) (antibody, V domains shown)
# VH: B1 VH
# VL: QLVLTQPPSVSGAPGQRVTISCTGSSSNIGAGYDVHWYQSLPGTVPKLLISGNSNRPPGVPDRFSGSKSGTSASLAITSLQSEDEADYYCHSYDGSLSEGVFGTGTKVTVL
# notes: also called PD-L1-16E12-4A7
# B3: PDL1-16E12 (LS/4A11) (antibody, V domains shown)
# VH: B1 VH
# VL: B1 VL with T19I, L41V, S54N, N55H, A86T, S95N, S96R, G100S, V101L
# notes: also called PD-L1-16E12-4A11
# B4: PDL1-16E12 (LS/4C9) (antibody, V domains shown)
# VH: B1 VH
# VL: QLVLTQPPSVSGAPGQRVTISCTGGSSNIGAGYDVHWYQQLPGTAPKLLLFGNTNRPSGVPGRFSGSKSGSSASLAITGLQSDDEADYYCQSYDSSLGGSVIGTGTKVTVL
# notes: also called PD-L1-16E12-4C9
# B5: PDL1-16E12 (LS/4H8) (antibody, V domains shown)
# VH: B1 VH
# VL: QLVLTQPSSVSGAPGQRVTISCTGSSSNIGAGYDVHWYQQLPGTAPKLLIYGNSNRPSGVPDRFSGSKSGTSASLAITGLQAEDEADYYCQSYDSSLSGSGVFGTGTKVTVL
# notes: also called PD-L1-16E12-4H8
# B6: PDL1-16E12 (LS/4A6) (antibody, V domains shown)
# VH: B1 VH
# VL: B5 VL with S8T, T19I, S54T, S72A, Y93F, S95R, L97R, G101N
# B7: PDL1-16E12 (LS/4B12) (antibody, V domains shown)
# VH: B1 VH
# VL: QLVLTQPPSVSGAPGQRVTISCTGSSSNIGAGYDVHWYQQLPGTAPKLIIYGDTKRASGVPDRFSGSKSGTSASLAITGLQAEDGADYYCQSYDNSLSAHAVFGTGTKVTVL
# B8: PDL1-16E12 (LS/4H6) (antibody, V domains shown)
# VH: B1 VH
# VL: QLVLTQPPSVSAAPGQTVTISCTGSSSNIGAGYDVHWYQQFPGTAPKLLIYGNNNRPSGVPDRFSGSKSGTSASLAITGLQTDDEADYFCQSYDSSLRVSSVFGTGTKVTVL
# B9: PDL1-16E12 (LS/4D4) (antibody, V domains shown)
# VH: B1 VH
# VL: B1 VL with P8S, I29L, G32P, G66V, G99S, G100S
# B10: PDL1-16E12 (LS/4F11) (antibody, V domains shown)
# VH: B1 VH
# VL: B1 VL with L2F, Y33S, S54N, S98N, G100V
# B11: PDL1-16E12 (LS/4G1) (antibody, V domains shown)
# VH: B1 VH
# VL: B4 VL with G98S, I102F
# B12: PDL1-16E12 (LS/4H9) (antibody, V domains shown)
# VH: B1 VH
# VL: QFVLTQPPSVSGAPGQRVTISCTGSRSNFGAGHDVHWYQQLPGTAPKLLIYGNNNRPSGVPDRFSGSKSGTSASLAIAGLQSDDEADYYCQSYDSSLSGSVFGTGTKVTVL
# B13: PDL1-16E12 (LS/4H11) (antibody, V domains shown)
# VH: B1 VH
# VL: QLVLTQPPSVSGAPGQRVTISCTGSSSNVGAGYDVHWYQQLPGTAPKLLIYGNNNRPSGVPARFSGSKSGTSASLAITGLQAEDEADYYCQSYDSRLGVVFGGGTKLTVL
# B14: PDL1-16E12 (LS/4A8) (antibody, V domains shown)
# VH: B1 VH
# VL: B13 VL with V29I, Q40H, L41R, T44K, K47Q, N53D, V60I, A62D, A82P, Y93F
# B15: PDL1-16E12 (LS/4E5) (antibody, V domains shown)
# VH: B1 VH
# VL: B13 VL with R17G, S25D, V29I, L41F, G52E, N54S, A62D, V99A
# B16: PDL1-16E12 (LS/4A10) (antibody, V domains shown)
# VH: B1 VH
# VL: QLVLTQPPSVSGAPGQRVTISCTGSNSNIGAGYDVHWYQQLPGTAPKLLIHGNNIRPSGVPDRFSGSRSGTSASLAITGLQADDEANYFCQSYDNSLRGSVFGTGTKVTVL
# B17: PDL1-16E12 (LS/4B8) (antibody, V domains shown)
# VH: B1 VH
# VL: QLVLTQPPSVSGAPGQSVTISCTGSNSDIGAGHDVHWYQQLPGAAPKLLIHGDRDRPSGVPDRFSGSKSGTSASLAITGLQPEDEADYYCQSYNNSLRGSVFGTGTKVTVL
# B18: PDL1-16E12 (LS/4B11) (antibody, V domains shown)
# VH: B1 VH
# VL: QLVLTQPPSVSGAPGQRVTISCTGTNSNIGAGHDVQWYQQIPGTAPKLLIYGNNNRPSGVPDRFSGSKSGTLASLAITGLQSEDEADYYCHSYDGSLSEGVFGTGTKVTVL
# B19: PDL1-16E12 (LS/4E12) (antibody, V domains shown)
# VH: B1 VH
# VL: QLVLTQPPSVSAAPGQKVTFSCTGSSSNIGAGYDVHWYQHLPGAAPRLLIYANTNRPLGVPDRFSGSKSGTSASLAITGLQAEDEADYYCQSYDNRLSGSLFGGGTKLTVL
# Target: T1, PD-L1 on CHO cell line highly expressing PD-L1 (PD-1/PD-L1 blockade bioassay kit, promega J1250) (UniProt Q9NZQ7 19-290, limits assumed)
# T1 sequence (Q9NZQ7 19-290 limits assumed): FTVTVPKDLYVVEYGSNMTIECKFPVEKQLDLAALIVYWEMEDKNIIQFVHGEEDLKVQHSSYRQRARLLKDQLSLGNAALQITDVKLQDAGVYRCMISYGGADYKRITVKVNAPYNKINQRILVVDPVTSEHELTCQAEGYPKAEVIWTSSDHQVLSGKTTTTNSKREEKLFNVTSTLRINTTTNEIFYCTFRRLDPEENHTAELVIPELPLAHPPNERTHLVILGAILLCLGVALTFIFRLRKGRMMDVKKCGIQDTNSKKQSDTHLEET
# Experiment: cell-based or functional assay
Binder,EC50 (first run),EC50 (second run)
B1,0.43 nM,0.26 nM
B2,0.38 nM,0.4 nM
B3,0.37 nM,0.36 nM
B4,0.4 nM,0.4 nM
B5,0.43 nM,0.31 nM

# Target: T2, PD-L1-hFc (human, UniProt Q9NZQ7 19-238)
# T2 construct: extracellular domain; Made in HEK-293F cells, protein A purified; also called PD-L1 antigen; PD-L1 protein
# T2 sequence (Q9NZQ7 other isoform, or with tags, fused parts or gaps limits assumed): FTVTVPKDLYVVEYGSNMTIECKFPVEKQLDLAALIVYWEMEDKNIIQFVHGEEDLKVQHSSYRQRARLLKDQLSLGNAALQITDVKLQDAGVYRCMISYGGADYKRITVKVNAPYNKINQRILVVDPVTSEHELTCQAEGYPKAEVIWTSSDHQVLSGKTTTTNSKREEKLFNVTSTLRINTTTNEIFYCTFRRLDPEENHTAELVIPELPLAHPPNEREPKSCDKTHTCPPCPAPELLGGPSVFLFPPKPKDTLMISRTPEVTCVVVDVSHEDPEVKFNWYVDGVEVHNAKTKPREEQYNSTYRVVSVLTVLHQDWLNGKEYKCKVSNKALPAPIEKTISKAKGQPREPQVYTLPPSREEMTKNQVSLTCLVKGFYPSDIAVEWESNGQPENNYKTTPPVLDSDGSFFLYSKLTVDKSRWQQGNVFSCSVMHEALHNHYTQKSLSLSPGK
# Experiment: kinetics on PD-L1-hFc (legend paragraph 40; text names ProteOn XPR36, the sheet's sensorgrams have a nm axis)
Binder,Kd,koff,kon
B1,< 0.001 nM,< 1e-07 s⁻¹,226000 M⁻¹ s⁻¹
B2,0.0396 nM,–,161000 M⁻¹ s⁻¹
B3,0.0798 nM,1.28e-05 s⁻¹,160000 M⁻¹ s⁻¹
B4,0.0158 nM,2.62e-06 s⁻¹,166000 M⁻¹ s⁻¹
B5,< 0.001 nM,< 1e-07 s⁻¹,240000 M⁻¹ s⁻¹

# Target: T3, human PD-L1 over-expressed on HEK293E cells (human, UniProt Q9NZQ7 19-290)
# T3 construct: whole, on cells; also called human PD-L1 (NM_014143.2)
# T3 sequence (Q9NZQ7 19-290): as the sequence (Q9NZQ7 19-290 limits assumed) above
# Experiment: flow cytometry on HEK293E/PD-L1 cells, FITC anti-human IgG, serial dilutions; fit table
# Method: 0.5 to 1×10⁶ cells per sample were prepared from the transformation cell pools highly expressing human PD-L1, and antibodies were serially diluted at a constant dilution rate and reacted with the prepared cells at 4° C. for 20 minutes. Then, the cells were washed three times with PBS (#LB001-02, Welgene) containing 2% fetal bovine serum and reacted at 4° C. for 20 minutes with an anti-human IgG antibody (#FI-3000, Vectorlabs) conjugated with a FITC (fluorescein isothiocyanate) fluorescent substance. Then, the cells were subjected to the same washing process as above and then suspended in 0.5 ml of PBS containing 2% FBS (#26140-079, Thermo Fisher) with an FACSCanto II flow cytometer (BD Biosciences, USA) as a flow cytometer (Table 11).
Binder,Bmax,Kd
B1,4020,1.93 nM
B2,4260,3.92 nM
B3,4230,2.57 nM
B4,4400,2.42 nM
B5,3990,1.98 nM

# Target: T1, PD-L1 on CHO cell line highly …
# Experiment: cell-based or functional assay
# Remark: another data set of the same source
row,Binder,"Average *EC50 [nM], PD-1/PD-L1 blockade bioassay"
1,B6,0.48 nM
2,B7,0.46 nM
3,B8,0.51 nM
4,B1,0.33 nM
5,B2,0.37 nM
6,B3,0.34 nM
7,B9,0.57 nM
8,B10,1.68 nM
9,B11,0.47 nM
10,B12,0.63 nM
11,B13,1.02 nM
12,B14,0.83 nM
13,B15,0.45 nM
14,B16,0.45 nM
15,B17,188 nM
16,B18,0.63 nM
17,B4,0.39 nM
18,B19,0.49 nM
19,B5,0.36 nM
